In patent US20120171723A1 one finds Cell Proliferation (percent of control) data, which are given here for two substances.

In this test the target is human zFGF5 (FGF homolog polypeptide) (human) (UniProt O76093). As to the kind of experiment: cell-based or functional assay.
Sequence of human zFGF5 (FGF homolog polypeptide) (human) (O76093 28-207): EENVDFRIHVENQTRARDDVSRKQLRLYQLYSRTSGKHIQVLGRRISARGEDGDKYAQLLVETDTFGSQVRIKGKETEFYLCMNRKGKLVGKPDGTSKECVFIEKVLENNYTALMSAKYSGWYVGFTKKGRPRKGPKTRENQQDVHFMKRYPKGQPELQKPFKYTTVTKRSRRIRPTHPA

Substance “FGFR2α-IIIb/Fc soluble receptor (from UniProt P21802 22-378) (Fc fusion)” showed a Cell Proliferation (percent of control) at 0 fold-excess of soluble receptor (percent of control) of 100, a Cell Proliferation (percent of control) at 62.5 fold-excess of soluble receptor (percent of control) of 101, a Cell Proliferation (percent of control) at 125 fold-excess of soluble receptor (percent of control) of 90 and a Cell Proliferation (percent of control) at 250 fold-excess of soluble receptor (percent of control) of 91. The substance also yielded a Cell Proliferation (percent of control) at 500 fold-excess of soluble receptor (percent of control) of 101 and a Cell Proliferation (percent of control) at 1000 fold-excess of soluble receptor (percent of control) of 99.

The substance “FGFR3α-IIIc/Fc soluble receptor (Fc fusion)” came in with a Cell Proliferation (percent of control) at 0 fold-excess of soluble receptor (percent of control) of 100, a Cell Proliferation (percent of control) at 0.8 fold-excess of soluble receptor (percent of control) of 85, a Cell Proliferation (percent of control) at 1.6 fold-excess of soluble receptor (percent of control) of 66 and a Cell Proliferation (percent of control) at 3.2 fold-excess of soluble receptor (percent of control) of 37. This substance came in with a Cell Proliferation (percent of control) at 6.3 fold-excess of soluble receptor (percent of control) of 5, a Cell Proliferation (percent of control) at 12.5 fold-excess of soluble receptor (percent of control) of 1, a Cell Proliferation (percent of control) at 25 fold-excess of soluble receptor (percent of control) of 0.2 and a Cell Proliferation (percent of control) at 50 fold-excess of soluble receptor (percent of control) of 0. This substance also gave a Cell Proliferation (percent of control) at 100 fold-excess of soluble receptor (percent of control) of 0.
